Data: the supplement of paper PMC9112550, “Optimization of the antimicrobial peptide Bac7 by deep mutational scanning” (BMC Biology, 2022)

Test system: Escherichia coli TOP10
Test: shrunken log2 fold change of peptide-encoding DNA abundance (4.5 h post-induction vs induction); higher = less antimicrobial activity (less host growth inhibition)
Conditions: time post-induction: 4.5 h; library: site-saturation at positions 5, 18, 19, 20
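Also: peptides expressed intracellularly from a pBAD plasmid library in pooled LB shake-flask culture, induced with 0.3% L-arabinose, DNA abundance read by NGS, three biological replicates, DESeq2 with apeglm shrinkage.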

Sequence	shrunken log2 fold change
RRIRLRPPRLPRPRPRPLVLPRP	-0.355
RRIRNRPPRLPRPRPRPVHSPRP	-0.245
RRIRTRPPRLPRPRPRPNQTPRP	-0.155
RRIRWRPPRLPRPRPRPFEEPRP	0.43
RRIRNRPPRLPRPRPRPRTKPRP	0.123
RRIRLRPPRLPRPRPRPEIPPRP	-0.0569
RRIRFRPPRLPRPRPRPFRSPRP	-0.0534
RRIRVRPPRLPRPRPRPSWWPRP	0.0465
RRIRTRPPRLPRPRPRPHLMPRP	-0.139
RRIRARPPRLPRPRPRPNQNPRP	0.0844
RRIRWRPPRLPRPRPRPNRTPRP	0.121
RRIRVRPPRLPRPRPRPRWPPRP	0.534
RRIRSRPPRLPRPRPRPSDTPRP	-0.396
RRIRDRPPRLPRPRPRPLPNPRP	-0.234
RRIRQRPPRLPRPRPRPFPDPRP	-0.108
RRIRGRPPRLPRPRPRPMVGPRP	0.108
RRIRVRPPRLPRPRPRPFYMPRP	-0.136
RRIRERPPRLPRPRPRPNIVPRP	-0.232
RRIRVRPPRLPRPRPRPFDAPRP	0.0132
RRIRIRPPRLPRPRPRPHGYPRP	-0.714
RRIRTRPPRLPRPRPRPGHQPRP	-0.199
RRIRMRPPRLPRPRPRPRLGPRP	0.644
RRIRDRPPRLPRPRPRPIRYPRP	-0.103
RRIRQRPPRLPRPRPRPCKGPRP	0.00408
RRIRNRPPRLPRPRPRPYYTPRP	-1.27

Sequence	shrunken log2 fold change
RRIRWRPPRLPRPRPRPDLQPRP	-0.0193
RRIRCRPPRLPRPRPRPEFEPRP	0.0293
RRIRTRPPRLPRPRPRPPCEPRP	0.0977
RRIRDRPPRLPRPRPRPKWFPRP	-0.0316
RRIRKRPPRLPRPRPRPQTGPRP	0.0141
RRIRNRPPRLPRPRPRPEFEPRP	0.114
RRIRIRPPRLPRPRPRPRNVPRP	-0.247
RRIRFRPPRLPRPRPRPSPVPRP	-0.00168
RRIRSRPPRLPRPRPRPESTPRP	0.0707
RRIRERPPRLPRPRPRPLMGPRP	0.247
RRIRKRPPRLPRPRPRPAIAPRP	0.802
RRIRTRPPRLPRPRPRPMKRPRP	0.298
RRIRDRPPRLPRPRPRPARTPRP	0.364
RRIRRRPPRLPRPRPRPDGFPRP	0.14
RRIRFRPPRLPRPRPRPCPWPRP	-0.0658
RRIRARPPRLPRPRPRPSLNPRP	-0.0562
RRIRVRPPRLPRPRPRPNSEPRP	-0.43
RRIRWRPPRLPRPRPRPRSCPRP	0.083
RRIRRRPPRLPRPRPRPTNWPRP	0.37
RRIRQRPPRLPRPRPRPQVGPRP	0.331
RRIRWRPPRLPRPRPRPNQQPRP	-0.0465
RRIRTRPPRLPRPRPRPIRGPRP	0.074
RRIRWRPPRLPRPRPRPDVWPRP	0.373
RRIRSRPPRLPRPRPRPLRSPRP	0.747
RRIRNRPPRLPRPRPRPTKWPRP	-0.2

Sequence	shrunken log2 fold change
RRIRNRPPRLPRPRPRPPEGPRP	1.62
RRIRMRPPRLPRPRPRPDQWPRP	0.312
RRIRTRPPRLPRPRPRPTCSPRP	0.00373
RRIRDRPPRLPRPRPRPYAFPRP	-0.187
RRIRRRPPRLPRPRPRPGYPPRP	0.00327
RRIRLRPPRLPRPRPRPLKDPRP	-0.0949
RRIRHRPPRLPRPRPRPNKNPRP	-0.717
RRIRDRPPRLPRPRPRPAKQPRP	0.181
RRIRARPPRLPRPRPRPPHTPRP	0.739
RRIRFRPPRLPRPRPRPYACPRP	0.0338
RRIRERPPRLPRPRPRPTVNPRP	-0.129
RRIRKRPPRLPRPRPRPDHMPRP	0.0864
RRIRVRPPRLPRPRPRPSIYPRP	-0.482
RRIRQRPPRLPRPRPRPTLPPRP	1.69
RRIRERPPRLPRPRPRPQCGPRP	-0.43
RRIRIRPPRLPRPRPRPPIMPRP	-0.494
RRIRWRPPRLPRPRPRPDFEPRP	0.385
RRIRLRPPRLPRPRPRPWSPPRP	-0.303
RRIRERPPRLPRPRPRPPYVPRP	-0.524
RRIRIRPPRLPRPRPRPFRSPRP	-0.221
RRIRDRPPRLPRPRPRPGSNPRP	-0.153
RRIRVRPPRLPRPRPRPNGTPRP	-0.356
RRIRDRPPRLPRPRPRPVSYPRP	-0.0715
RRIRARPPRLPRPRPRPYLGPRP	0.0554
RRIRGRPPRLPRPRPRPCPRPRP	0.23

Sequence	shrunken log2 fold change
RRIRERPPRLPRPRPRPPPKPRP	0.748
RRIRSRPPRLPRPRPRPQPQPRP	0.47
RRIRRRPPRLPRPRPRPNAFPRP	-0.0721
RRIRIRPPRLPRPRPRPCSTPRP	-0.484
RRIRSRPPRLPRPRPRPWLLPRP	-0.337
RRIRKRPPRLPRPRPRPTAGPRP	0.581
RRIRKRPPRLPRPRPRPSDNPRP	0.0936
RRIRQRPPRLPRPRPRPSLSPRP	-0.227
RRIRTRPPRLPRPRPRPCAMPRP	-0.111
RRIRARPPRLPRPRPRPYTDPRP	-0.785
RRIRNRPPRLPRPRPRPGDIPRP	0.0338
RRIRARPPRLPRPRPRPYKEPRP	-0.423
RRIRVRPPRLPRPRPRPLIQPRP	-0.351
RRIRTRPPRLPRPRPRPQTPPRP	0.25
RRIRCRPPRLPRPRPRPQTTPRP	-0.155
RRIRDRPPRLPRPRPRPMHLPRP	-0.339
RRIRSRPPRLPRPRPRPTAGPRP	0.679
RRIRARPPRLPRPRPRPGAFPRP	0.454
RRIRPRPPRLPRPRPRPCVEPRP	0.021
RRIRLRPPRLPRPRPRPHLPPRP	-0.353
RRIRYRPPRLPRPRPRPMPLPRP	-0.398
RRIRNRPPRLPRPRPRPSLQPRP	-0.0436
RRIRCRPPRLPRPRPRPWPIPRP	-0.369
RRIRWRPPRLPRPRPRPATGPRP	0.0426
RRIRERPPRLPRPRPRPFGGPRP	-0.0945

Sequence	shrunken log2 fold change
RRIRERPPRLPRPRPRPQWIPRP	-0.0767
RRIRNRPPRLPRPRPRPPHEPRP	0.256
RRIRWRPPRLPRPRPRPNKIPRP	-0.432
RRIRNRPPRLPRPRPRPCHIPRP	-0.366
RRIRWRPPRLPRPRPRPNNWPRP	-0.0483
RRIRKRPPRLPRPRPRPEDRPRP	0.206
RRIRGRPPRLPRPRPRPRIGPRP	0.779
RRIRVRPPRLPRPRPRPEDVPRP	0.0203
RRIRHRPPRLPRPRPRPTMFPRP	-0.0195
RRIRTRPPRLPRPRPRPNYWPRP	-0.208
RRIRNRPPRLPRPRPRPAKVPRP	-0.0027
RRIRHRPPRLPRPRPRPQILPRP	-0.0081
RRIRNRPPRLPRPRPRPHIAPRP	-0.621
RRIRDRPPRLPRPRPRPVDKPRP	-0.01
RRIRPRPPRLPRPRPRPELGPRP	0.24
RRIRYRPPRLPRPRPRPNVWPRP	-0.00356
RRIRDRPPRLPRPRPRPWRMPRP	-0.397
RRIRSRPPRLPRPRPRPSHHPRP	-0.515
RRIRSRPPRLPRPRPRPPYEPRP	0.0519
RRIRQRPPRLPRPRPRPNKRPRP	0.0702
RRIRMRPPRLPRPRPRPWFNPRP	-0.243
RRIRMRPPRLPRPRPRPPQPPRP	1.37
RRIRQRPPRLPRPRPRPWVFPRP	-0.227
RRIRPRPPRLPRPRPRPFDYPRP	-0.391
RRIRIRPPRLPRPRPRPRCKPRP	-0.35
